We go through six substances from PMC10375638.

Like-named read-outs stand apart in the source and are kept apart here.

The target of assay [1] is AP1-mV reporter in Arabidopsis flowers (Arabidopsis thaliana) (UniProt P35631). The assay can be described thus: FRET or BRET; FLIM-FRET (OPA) in young flowers of stable A. thaliana lines; donor AP1-mV, acceptor AP1-mCh or PI-mCh, endogenous promoters, F1 plants; only nuclei with donor and acceptor.
For assay [2], the target named is APETALA3 (AP3) fused to mVenus, expressed in N. benthamiana (Arabidopsis thaliana) (UniProt P35632). The assay can be described thus: FRET or BRET; FLIM-FRET with one pattern analysis (OPA) in nuclei of transiently expressing N. benthamiana leaf epidermis cells; donor mVenus fusion, acceptor mCherry fusion; BINDING = relative amplitude of the FRET fraction; nucleoli excluded; FRET efficiency only for nuclei with BINDING above 10%. A general note: In BRET a luciferase serves as donor, and the signal depends on an acceptor being close.

For assay [3], the target named is … (PI) fused to mVenus, expressed in N. benthamiana (Arabidopsis thaliana) (UniProt P48007). The description is as above.
Assay [4] has as its target APETALA1 (AP1) fused to mVenus, expressed in N. benthamiana (Arabidopsis thaliana) (UniProt P35631). The description is as above.
For assay [5] the target is unchanged. The assay is described as above. The source holds these as a separate data set.
Assay [6] has the same target. The assay is described as above. This is another data set of the same source.

APETALA1 (AP1) fused to mVenus, expressed in N. benthamiana, P35631 1-256 (natural protein; other documents disagree on this pair), sequence (P35631 whole entry, the tested form may be a part): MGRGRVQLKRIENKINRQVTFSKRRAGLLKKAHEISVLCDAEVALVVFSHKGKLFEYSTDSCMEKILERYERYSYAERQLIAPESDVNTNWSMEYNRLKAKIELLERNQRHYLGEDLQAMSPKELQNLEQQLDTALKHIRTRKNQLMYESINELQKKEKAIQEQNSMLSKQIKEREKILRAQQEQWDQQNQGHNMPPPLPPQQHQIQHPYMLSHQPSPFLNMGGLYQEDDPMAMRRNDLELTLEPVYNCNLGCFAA
APETALA3 (AP3) fused to mVenus, expressed in N. benthamiana (Arabidopsis thaliana), sequence (P35632 whole entry, the tested form may be a part): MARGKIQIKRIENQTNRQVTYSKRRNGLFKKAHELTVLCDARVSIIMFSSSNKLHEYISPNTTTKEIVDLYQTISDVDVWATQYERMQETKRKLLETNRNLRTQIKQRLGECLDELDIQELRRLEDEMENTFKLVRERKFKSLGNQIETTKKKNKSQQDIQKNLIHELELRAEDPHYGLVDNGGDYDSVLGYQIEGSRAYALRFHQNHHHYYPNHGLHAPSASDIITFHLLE
… (PI) fused to mVenus, expressed in N. benthamiana (Arabidopsis thaliana), sequence (P48007 whole entry, the tested form may be a part): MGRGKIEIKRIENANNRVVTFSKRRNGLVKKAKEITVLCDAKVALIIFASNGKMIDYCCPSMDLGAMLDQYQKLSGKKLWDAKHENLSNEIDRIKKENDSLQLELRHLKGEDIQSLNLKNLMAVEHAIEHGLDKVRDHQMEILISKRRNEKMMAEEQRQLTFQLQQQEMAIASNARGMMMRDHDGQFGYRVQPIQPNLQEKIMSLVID
AP1-mV reporter in Arabidopsis flowers, P35631 1-256 (natural protein; other documents disagree on this pair), sequence (P35631 whole entry): as the sequence (P35631 whole entry, the tested form may be a part) above
APETALA1 (AP1) fused to mVenus, expressed in N. benthamiana (Arabidopsis thaliana), sequence (P35631 whole entry, the tested form may be a part): as above

In assay [1], “AP1-mV reporter in Arabidopsis flowers, P35631 1-256 (natural protein; other documents disagree on this pair)” showed a BINDING of 8.59% and an FRET efficiency of 56.7%.

Regarding “APETALA1 (AP1) fused to mCherry, expressed in N. benthamiana (from UniProt P35631 1-256) (natural protein)”, in assay [2], the BINDING came to 16.5% and the FRET efficiency amounted to 43.6%. In assay [3], this substance showed a BINDING of 16.1% and an FRET efficiency of 41.5%.

For “APETALA1 (AP1) fused to mVenus, expressed in N. benthamiana, P35631 1-256 (natural protein; other documents disagree on this pair)”, the BINDING in assay [4] was found to be 19.2%; in assay [5], 29.9%. Moreover, the FRET efficiency in assay [5] was determined as 39%; in assay [6], 40%.

In assay [3], “APETALA3 (AP3) fused to mCherry, expressed in N. benthamiana (from UniProt P35632 1-232) (natural protein)” returned a BINDING of 36% and an FRET efficiency of 38%.

In assay [5], “…3 (SEP3) fused to mCherry, expressed in N. benthamiana (from UniProt O22456 1-251) (natural protein)” yielded a BINDING of 36.1% and an FRET efficiency of 42.6%.

On to “… (PI) fused to mCherry, expressed in N. benthamiana (from UniProt P48007 1-208) (natural protein)”, for which, in assay [2], the BINDING is 35.2% and the FRET efficiency is 38%.
